Measurements from patent publication US20120213794A1 (published 2012).

Molecular target: human PCSK9 (proprotein convertase subtilisin-kexin type 9), wild type (UniProt Q8NBP7 31-692)
Test: TR-FRET PCSK9-LDLR interaction inhibition

Chain of human PCSK9 (proprotein convertase subtilisin-kexin type 9), wild type (Q8NBP7 31-692): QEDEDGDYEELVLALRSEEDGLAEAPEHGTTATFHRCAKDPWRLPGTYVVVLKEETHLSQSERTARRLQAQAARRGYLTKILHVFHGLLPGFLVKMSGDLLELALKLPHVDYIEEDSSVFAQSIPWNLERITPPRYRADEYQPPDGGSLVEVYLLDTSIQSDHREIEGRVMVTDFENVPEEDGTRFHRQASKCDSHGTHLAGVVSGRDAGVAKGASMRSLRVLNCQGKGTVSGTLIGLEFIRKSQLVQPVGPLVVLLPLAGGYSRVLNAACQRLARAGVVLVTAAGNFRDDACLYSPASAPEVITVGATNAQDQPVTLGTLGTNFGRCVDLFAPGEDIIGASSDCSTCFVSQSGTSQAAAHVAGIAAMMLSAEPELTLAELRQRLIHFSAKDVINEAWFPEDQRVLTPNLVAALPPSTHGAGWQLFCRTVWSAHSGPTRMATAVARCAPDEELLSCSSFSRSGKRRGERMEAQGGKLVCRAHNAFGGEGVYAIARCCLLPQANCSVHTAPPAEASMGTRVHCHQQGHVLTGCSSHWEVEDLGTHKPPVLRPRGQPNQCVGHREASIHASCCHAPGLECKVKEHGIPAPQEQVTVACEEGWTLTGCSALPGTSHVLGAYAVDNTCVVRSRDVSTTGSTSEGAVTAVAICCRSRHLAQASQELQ

Binder | IC50
AX211 IgG2 (antibody, V domains shown) VH: QVQLLESGGGLVQPGGSLRLSCKASGYTFSRQGFTWVRQAPGKGLEWIGWIDPGNGGTRYNEKFKGKATISRDNSKNTLYLQMNSLRAEDTAVYYCARYRVGYSLDYWGQGTLVTVSS VL: EIVLTQSPATLSLSPGERATITCRASQYVGSYLNWYQQKPGQAPRLLIYDASNRATGIPARFSGSGSGTDFTLTISSLEPEDFAVYYCQVWDSSPPVVFGGGTKVEIK | 4.8 nM
AX210 IgG2 (antibody, V domains shown) VH: QVQLLESGGGLVQPGGSLRLSCKASGYTFSSYSIYWVRQAPGKGLEWIGWIDPGNGGTRYNQKFQSKATISRDNSKNTLYLQMNSLRAEDTAVYYCARARVGYSLDYWGQGTLVTVSS VL: EIVLTQSPATLSLSPGERATITCRASQYVGSYLNWYQQKPGQAPRLLIYDASNRATGIPARFSGSGSGTDFTLTISSLEPEDFAVYYCQVWDSSPPVVFGGGTKVEIK | 4.9 nM
AX213 IgG2 (antibody, V domains shown) VH: EVQLLESGGGLVQPGGSLRLSCKASGYTFSRYGINWVRQAPGKGLEWIGRIDPGNGGTRYNEKFKGKATISRDNSKNTLYLQMNSLRAEDTAVYYCARANDGYSFDYWGQGTLVTVSS VL: EIVLTQSPATLSLSPGERATITCRASQYVGSYLNWYQQKPGQAPRLLIYDASNRATGIPARFSGSGSGTDFTLTISSLEPEDFAVYYCQVWDSSPPVVFGGGTKVEIKR | 4.9 nM
AX114 IgG2 (antibody, V domains shown) VH: EVQLLESGGGLVQPGGSLRLSCKASGYTFSSYGMYWVRQAPGKGLEWIGWIDPGSGGTKYNEKFKGKATISRDNSKNTLYLQMNSLRAEDTAVYYCARERYGYYFDYWGQGTLVTVSS VL: EIVLTQSPATLSLSPGERATITCRASQYVGTYLNWYQQKPGQAPRLLIYDASNRATGIPARFSGSGSGTDFTLTISSLEPEDFAVYYCQVWDSSPPVAFGGGTKVEIK | 5.9 nM
AX212 IgG2 (antibody, V domains shown) VH: QVQLLESGGGLVQPGGSLRLSCKASGYTFSSYSFSWVRQAPGKGLEWIGYIDPGSGGTKYNQKFQGKATISRDNSKNTLYLQMNSLRAEDTAVYYCARQRVGYSLDYWGQGTLVTVSS VL: EIVLTQSPATLSLSPGERATITCRASQYVGSYLNWYQQKPGQAPRLLIYDASNRATGIPARFSGSGSGTDFTLTISSLEPEDFAVYYCQVWDSSPPVVFGGGTKVEIK | 3.9 nM
